Laboratory results taken from patent US20040234498A1 (Genentech, published 2004).
One block for each binder: values may come before it.

Legend:
[1] = biological target: T1, human GITR (hGITR), full length, on cells (human, UniProt Q9Y5U5 26-241); test: cell-based or functional assay
T1 sequence (looked up): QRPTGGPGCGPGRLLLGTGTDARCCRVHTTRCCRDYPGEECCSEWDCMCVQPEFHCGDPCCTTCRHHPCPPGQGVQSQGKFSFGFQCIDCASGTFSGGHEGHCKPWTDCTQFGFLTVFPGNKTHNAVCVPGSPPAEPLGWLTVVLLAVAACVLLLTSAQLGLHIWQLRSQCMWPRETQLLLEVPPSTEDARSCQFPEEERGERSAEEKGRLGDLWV

[2] = biological target: T2, DR4 immunoadhesin (DR4 ECD fused to hinge and Fc portion of human IgG) (human, UniProt O00220 24-239, limits assumed); test: co-precipitation with protein A-sepharose, SDS-PAGE, autoradiography
T2 construct: extracellular domain; not shown: hinge and Fc portion of human IgG, as described for TNFR1 in Ashkenazi et al. 1991
T2 sequence (looked up): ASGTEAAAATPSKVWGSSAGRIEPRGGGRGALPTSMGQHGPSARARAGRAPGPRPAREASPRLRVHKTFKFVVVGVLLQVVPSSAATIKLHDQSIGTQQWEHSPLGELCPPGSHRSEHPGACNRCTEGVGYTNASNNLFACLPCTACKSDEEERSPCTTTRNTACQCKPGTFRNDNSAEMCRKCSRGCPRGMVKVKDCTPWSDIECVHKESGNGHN
Description: (§1) A soluble DNA19355 polypeptide was also prepared by expressing the ECD in E. coli cells (as described in Example 3 above). The soluble DNA19355 ECD molecule was then labeled with ¹²⁵I. For comparison, immunoadhesin constructs were also made of the following TNF receptor family members: CD95, DR4, DR5, TNFR1, TNFR2, and Apo-3. CD95, DR4, DR5, TNFR1, TNFR2, and Apo-3 immunoadhesins were prepared by fusing each receptor's ECD to the hinge and Fc portion of human IgG, as described previously for TNFR1 [Ashkenazi et al., Proc. Natl. Acad. Sci., 88:10535-10539 (1991)]. The respective TNF receptor family members are described (and relevant references cited) in the Background of the Invention section.
(§2) For the co-precipitation assay, each immunoadhesin (5 microgram) was incubated with ¹²⁵I-labeled soluble DNA19355 polypeptide (1 microgram) for 1 hour at 24° C., followed by protein A-sepharose for 30 minutes on ice. The reaction mixtures were spun down and washed several times in PBS, boiled in SDS-PAGE buffer containing 20 mM dithiothreitol and then resolved by SDS-PAGE and autoradiography.

[3] = biological target: T3, TNFR2 immunoadhesin (TNFR2 ECD fused to hinge and Fc portion of human IgG) (human, UniProt P20333 23-257, limits assumed); test: as above
T3 construct: extracellular domain; not shown: hinge and Fc portion of human IgG, as described for TNFR1 in Ashkenazi et al. 1991
T3 sequence (looked up): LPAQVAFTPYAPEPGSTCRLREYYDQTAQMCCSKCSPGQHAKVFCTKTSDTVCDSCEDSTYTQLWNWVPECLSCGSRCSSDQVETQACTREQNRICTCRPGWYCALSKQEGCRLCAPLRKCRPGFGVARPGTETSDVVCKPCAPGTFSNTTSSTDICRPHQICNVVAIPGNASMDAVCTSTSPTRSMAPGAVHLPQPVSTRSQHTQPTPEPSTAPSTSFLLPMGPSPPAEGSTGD
Description: as §1, §2

[4] = biological target: T4, Apo-3 immunoadhesin (Apo-3 ECD fused to hinge and Fc portion of human IgG) (human, UniProt Q93038 25-199); test: as above
T4 construct: extracellular domain; also called DR3; wsl-1; not shown: hinge and Fc portion of human IgG, as described for TNFR1 in Ashkenazi et al. 1991
T4 sequence (looked up): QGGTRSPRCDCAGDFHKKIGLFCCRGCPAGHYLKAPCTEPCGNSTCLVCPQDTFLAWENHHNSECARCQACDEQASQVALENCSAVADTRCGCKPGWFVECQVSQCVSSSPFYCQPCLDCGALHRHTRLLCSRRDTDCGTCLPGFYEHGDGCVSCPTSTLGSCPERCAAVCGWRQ
Description: as §1, §2

[5] = biological target: T5, DR5 immunoadhesin (DR5 ECD fused to hinge and Fc portion of human IgG) (human, UniProt O14763 56-210, limits assumed); test: as above
T5 construct: extracellular domain; also called Apo-2; not shown: hinge and Fc portion of human IgG, as described for TNFR1 in Ashkenazi et al. 1991
Description: as §1, §2

[6] = biological target: T6, CD95 immunoadhesin (CD95 ECD fused to hinge and Fc portion of human IgG) (human, UniProt P25445 26-173, limits assumed); test: as above
T6 construct: extracellular domain; also called Fas-IgG; Fas/Apo1; not shown: hinge and Fc portion of human IgG, as described for TNFR1 in Ashkenazi et al. 1991
T6 sequence (looked up): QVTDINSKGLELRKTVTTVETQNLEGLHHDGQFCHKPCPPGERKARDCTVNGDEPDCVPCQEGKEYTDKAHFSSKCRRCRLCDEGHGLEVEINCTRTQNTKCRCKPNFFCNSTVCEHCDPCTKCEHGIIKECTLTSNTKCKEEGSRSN
Description: as §1, §2

[7] = biological target: T7, TNFR1 immunoadhesin (TNFR1 ECD fused to hinge and Fc portion of human IgG) (human, UniProt P19438 30-211, limits assumed); test: as above
T7 construct: extracellular domain; also called TNFR1-IgG; not shown: hinge and Fc portion of human IgG, as described in Ashkenazi et al. 1991
T7 sequence (looked up): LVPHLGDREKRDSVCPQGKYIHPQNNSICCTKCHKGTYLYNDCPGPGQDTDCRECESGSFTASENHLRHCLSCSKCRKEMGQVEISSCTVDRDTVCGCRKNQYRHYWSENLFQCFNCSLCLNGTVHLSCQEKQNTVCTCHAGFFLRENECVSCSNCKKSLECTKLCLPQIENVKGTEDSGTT
Description: as §1, §2

[8] = biological target: T7, TNFR1 immunoadhesin (TNFR1 ECD fused to …); test: FACS on HUVEC cells (endogenous DNA19355 transcripts)
Description: The DNA19355 polypeptide was identified in a human umbilical vein endothelial cell (HUVEC) library, and the DNA19355 polypeptide transcripts are readily detectable in HUVEC by RT-PCR (data not shown). […] HUVEC cells were purchased from Cell Systems (Kirkland, Wash.) and grown in a 50:50 mix of Ham's F12 and Low Glucose DMEM media containing 10% fetal bovine serum, 2 mM L-glutamine, 10 mM Hepes, and 10 ng/ml basic FGF. Cells were FACS sorted with PBS, hGITR-IgG, TNFR1-IgG or Fas-IgG as a primary antibody and goat anti-human F(ab′)2 conjugated to phycoerythrin (CalTag, Burlingame, Calif.).

secreted TNF-alpha levels from primary human T cells (ELISA of culture supernatants) [1]: ~20 fold
binding result [2]: no binding
binding result [3]: no binding
binding result [4]: no binding
binding result [5]: no binding
binding result [6]: no binding
binding result [7]: no binding
B1: soluble DNA19355 polypeptide (His10-tagged extracellular region, amino acids 52 to 177, expressed in E. coli) (ligand)
chain: MGHHHHHHHHHHSSGHIDDDDKHMETAKEPCMAKFGPLPSKWQMASSEPPCVNKVSDWKLEILQNGLYLIYGQVAPNANYNDVAPFEVRLYKNKDMIQTLTNKSKIQNVGGTYELHVGDTIDLIFNSEHQVLKNNTYWGIILLANPQFIS
modifications: 125I-labeled (radioiodinated) in the co-precipitation assay
notes: also called soluble DNA19355 ECD molecule; radioiodinated soluble DNA19355 polypeptide

binding result [8]: no binding
B2: full length DNA19355 polypeptide on cells (ligand)
chain: MCLSHLENMPLSHSRTQGAQRSSWKLWLFCSIVMLLFLCSFSWLIFIFLQLETAKEPCMAKFGPLPSKWQMASSEPPCVNKVSDWKLEILQNGLYLIYGQVAPNANYNDVAPFEVRLYKNKDMIQTLTNKSKIQNVGGTYELHVGDTIDLIFNSEHQVLKNNTYWGIILLANPQFIS
notes: also called full-length DNA19355 protein; GLITTER
